# According to patent US20220098266A1 (AKSTON BIOSCIENCES, published 2022):
# Residue numbers refer to the chain shown, from its start.
# B1: insulin-Fc fusion protein of SEQ ID NO: 20 (insulin polypeptide SEQ ID NO: 4, linker SEQ ID NO: 8, canine IgGA Fc fragment SEQ ID NO: 10) (Fc fusion)
# chain: FVNQHLCGSDLVEALALVCGERGFFYTDPTGGGPRRGIVEQCCHSICSLYQLENYCNGGGGAGGGGRCTDTPPCPVPEPLGGPSVLIFPPKPKDILRITRTPEVTCVVLDLGREDPEVQISWFVDGKEVHTAKTQSREQQFNGTYRVVSVLPIEHQDWLTGKEFKCRVNHIDLPSPIERTISKARGRAHKPSVYVLPPSPKELSSSDTVSITCLIKDFYPPDIDVEWQSNGQQEPERKHRMTPPQLDEDGSYFLYSKLSVDKSRWQQGDPFTCAVMHETLQNHYTDLSLSHSPG
# B2: insulin-Fc fusion protein of SEQ ID NO: 29 (SEQ ID NO: 24 with des hinge D and the mutation cNg-NB138-K; canine IgGB Fc fragment SEQ ID NO: 15) (Fc fusion)
# chain: FVNQHLCGSDLVEALALVCGERGFFYTDPTGGGPRRGIVEQCCHSICSLYQLENYCNGGGGAGGGGCPKCPAPEMLGGPSVFIFPPKPKDTLLIARTPEVTCVVVDLDPEDPEVQISWFVDGKQMQTAKTQPREEQFKGTYRVVSVLPIGHQDWLKGKQFTCKVNNKALPSPIERTISKARGQAHQPSVYVLPPSREELSKNTVSLTCLIKDFFPPDIDVEWQSNGQQEPESKYRTTPPQLDEDGSYFLYSKLSVDKSRWQRGDTFICAVMHEALHNHYTQESLSHSPG
# notes: Made in HEK293 cells; Non-glycosylated homodimer, 98.1% homodimer; also called cNg-K
# B3: insulin-Fc fusion protein of SEQ ID NO: 24 (insulin polypeptide SEQ ID NO: 4, linker SEQ ID NO: 8, canine IgGB Fc fragment SEQ ID NO: 11) (Fc fusion)
# chain: FVNQHLCGSDLVEALALVCGERGFFYTDPTGGGPRRGIVEQCCHSICSLYQLENYCNGGGGAGGGGDCPKCPAPEMLGGPSVFIFPPKPKDTLLIARTPEVTCVVVDLDPEDPEVQISWFVDGKQMQTAKTQPREEQFNGTYRVVSVLPIGHQDWLKGKQFTCKVNNKALPSPIERTISKARGQAHQPSVYVLPPSREELSKNTVSLTCLIKDFFPPDIDVEWQSNGQQEPESKYRTTPPQLDEDGSYFLYSKLSVDKSRWQRGDTFICAVMHEALHNHYTQESLSHSPG
# notes: Made in HEK293 cells; Disulfide-linked homodimer, 93% homodimer; Glycosylated at cNg-NB139
# B4: insulin-Fc fusion protein of SEQ ID NO: 27 (SEQ ID NO: 24 with the mutation cNg-NB139-S; canine IgGB Fc fragment SEQ ID NO: 14) (Fc fusion)
# chain: B3 chain with N139S
# notes: Made in HEK293 cells; Non-glycosylated homodimer, 98.3% homodimer; also called cNg-S
# Target: T1, human insulin receptor on human IM-9 cells (human, UniProt P06213 28-1382)
# T1 construct: whole, on cells; The natural receptor is an alpha2-beta2 tetramer processed from one precursor; also called IR; human IR
# T1 sequence (P06213 28-1382): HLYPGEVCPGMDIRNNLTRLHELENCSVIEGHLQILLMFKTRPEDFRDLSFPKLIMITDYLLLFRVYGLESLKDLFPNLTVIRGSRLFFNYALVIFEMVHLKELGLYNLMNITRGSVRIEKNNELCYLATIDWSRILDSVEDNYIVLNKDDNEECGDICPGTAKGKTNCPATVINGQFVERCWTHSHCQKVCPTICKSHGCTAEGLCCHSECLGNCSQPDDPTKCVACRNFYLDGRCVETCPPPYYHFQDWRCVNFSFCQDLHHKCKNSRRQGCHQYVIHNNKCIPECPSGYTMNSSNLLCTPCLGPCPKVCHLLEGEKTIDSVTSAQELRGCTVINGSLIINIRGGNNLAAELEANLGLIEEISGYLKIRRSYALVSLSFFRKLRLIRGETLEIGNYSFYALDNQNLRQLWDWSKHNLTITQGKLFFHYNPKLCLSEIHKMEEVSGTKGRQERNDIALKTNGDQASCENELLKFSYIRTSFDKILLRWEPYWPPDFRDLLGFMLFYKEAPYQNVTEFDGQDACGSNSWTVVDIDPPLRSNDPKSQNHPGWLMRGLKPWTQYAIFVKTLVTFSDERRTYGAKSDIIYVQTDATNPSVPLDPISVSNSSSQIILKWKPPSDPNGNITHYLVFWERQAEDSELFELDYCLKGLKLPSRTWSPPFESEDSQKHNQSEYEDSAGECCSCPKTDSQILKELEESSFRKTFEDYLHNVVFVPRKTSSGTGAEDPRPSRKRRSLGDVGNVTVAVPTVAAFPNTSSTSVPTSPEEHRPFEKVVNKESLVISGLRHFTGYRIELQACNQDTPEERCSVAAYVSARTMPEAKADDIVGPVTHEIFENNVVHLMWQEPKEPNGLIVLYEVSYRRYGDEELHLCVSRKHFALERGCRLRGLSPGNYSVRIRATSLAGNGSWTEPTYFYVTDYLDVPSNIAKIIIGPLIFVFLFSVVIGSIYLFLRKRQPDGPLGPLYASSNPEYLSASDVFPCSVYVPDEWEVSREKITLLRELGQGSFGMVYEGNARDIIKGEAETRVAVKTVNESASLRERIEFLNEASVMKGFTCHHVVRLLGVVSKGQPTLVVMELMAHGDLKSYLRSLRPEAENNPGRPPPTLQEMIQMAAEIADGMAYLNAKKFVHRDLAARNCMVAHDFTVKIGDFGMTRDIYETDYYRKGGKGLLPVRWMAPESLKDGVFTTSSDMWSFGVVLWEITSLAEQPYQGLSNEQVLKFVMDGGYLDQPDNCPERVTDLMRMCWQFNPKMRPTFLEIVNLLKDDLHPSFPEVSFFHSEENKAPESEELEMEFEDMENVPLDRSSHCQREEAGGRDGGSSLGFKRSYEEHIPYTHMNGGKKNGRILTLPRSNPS
# Experiment: flow cytometry competition with biotinylated RHI on IM-9 cells at 4 C
# Description: Cultures of IM-9 cells were centrifuged at 250×g (˜1000 rpm) for 10 min to pellet the cells. Cells were washed once with HBSS or PBS buffer, resuspended in cold FACS staining medium (HBSS/2 mM EDTA/0.1% Na-azide+4% horse serum) to a concentration of 8×10^6 cells/mL and kept on ice or 4° C. until test solutions were made. The insulin-Fc protein was diluted in FACS buffer in 1:3 serial dilutions as 2× concentrations in 1.2 mL tubes (approx. 60 μL volume of each dilution), and the solutions were kept cold on ice until ready for pipetting.
# Biotinylated-RHI was diluted in FACS staining medium to a concentration of 1.25 μg/mL. 40 μL of the serially diluted test compound and 8 μL of 1.25 μg/mL Biotin-RHI were added into each well of a V bottom microtiter plate, mixed by slow vortexing, and placed on ice. 40 μL of an IM-9 cell suspension (8×10^6 cells/mL) was then added to each well by multichannel pipette, mixed again gently and incubated on ice for 30 min to allow competitive binding on the insulin receptor on IM-9 cells. Cells were then washed twice with […], of ice-cold FACS wash buffer (HBSS/2 mM EDTA/0.1% Na-azide+0.5% horse serum) by centrifuging the V-bottom plate at 3000 rpm for 3 min and aspirating the supernatant. Cells were then resuspended in […], of FACS staining medium containing 1:100 diluted Streptavidin-PE (Life Technologies) for 20 min on ice. Cells were then washed once with 275 μL of ice-cold FACS buffer and finally fixed with 3% paraformaldehyde for 10 min at room temp. Cells were then washed once with 275 μL of ice-cold FACS buffer and resuspended in 250 μl of FACS buffer for analysis.
# The V-bottom plates containing cells were then analyzed on a Guava 8-HT flow cytometer (Millipore). Biotinylated-RHI binding to insulin receptor was quantitated by the median fluorescence intensity (MFI) of the cells on the FACS FL-2 channel for each concentration of the test compound. Control wells were labeled only with biotinylated-RHI and were used to calculate the percent (%) inhibition resulting from each test compound concentration. The % inhibition by test compounds of biotinylated-RHI binding on IM-9 cells was plotted against log concentrations of the test compound, and the resulting IC50 values were calculated using GraphPad Prism (GraphPad Software, La Jolla, Calif.) for the test compounds.
row,IC50 [nM],Binder
1,2730,B1
2,147,B2
3,28,B3
4,145,B4
